pKd: −log10 of the molar value.

The target of experiment [1] is RSV F glycoprotein (NUF4) (respiratory syncytial virus (RSV)) (UniProt P03420). Kind of experiment: BIAcore, Mab vs NUF4, 1:1.
For experiment [2] the target is unchanged. Nature of the experiment: BIAcore, Mab vs NUF4, 2:1.
For experiment [3] the target is unchanged. Kind of experiment: ITC, NUF4 titrated into antibody.
Experiment [4] has the same target. Kind of experiment: ITC, NUF4 titrated into antibody, 35 °C.

Chain of RSV F glycoprotein (NUF4) (respiratory syncytial virus (RSV)) (P03420 26-524): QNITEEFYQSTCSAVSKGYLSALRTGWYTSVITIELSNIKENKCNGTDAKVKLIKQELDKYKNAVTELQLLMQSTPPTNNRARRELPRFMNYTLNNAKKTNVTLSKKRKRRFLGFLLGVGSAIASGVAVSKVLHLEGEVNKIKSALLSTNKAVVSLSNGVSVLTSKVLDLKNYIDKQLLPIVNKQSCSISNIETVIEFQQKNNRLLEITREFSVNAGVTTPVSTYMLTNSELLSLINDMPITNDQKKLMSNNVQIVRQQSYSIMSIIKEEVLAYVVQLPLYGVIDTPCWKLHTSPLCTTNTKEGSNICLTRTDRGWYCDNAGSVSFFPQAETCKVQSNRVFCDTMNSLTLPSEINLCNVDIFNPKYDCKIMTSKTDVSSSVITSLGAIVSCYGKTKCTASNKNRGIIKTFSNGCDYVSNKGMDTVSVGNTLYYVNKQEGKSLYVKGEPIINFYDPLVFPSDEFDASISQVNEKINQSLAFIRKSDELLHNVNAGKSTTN
Chain of A4B4 (monoclonal antibody) (VH): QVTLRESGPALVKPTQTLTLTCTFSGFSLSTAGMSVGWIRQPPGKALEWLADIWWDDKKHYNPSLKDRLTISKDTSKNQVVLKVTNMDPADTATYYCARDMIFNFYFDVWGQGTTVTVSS
Chain of A4B4 (monoclonal antibody) (VL): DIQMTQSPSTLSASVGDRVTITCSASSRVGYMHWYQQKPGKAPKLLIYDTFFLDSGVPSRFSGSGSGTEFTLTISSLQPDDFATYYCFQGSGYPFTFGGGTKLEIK
Chain of SYNAGIS® (antibody) (VH): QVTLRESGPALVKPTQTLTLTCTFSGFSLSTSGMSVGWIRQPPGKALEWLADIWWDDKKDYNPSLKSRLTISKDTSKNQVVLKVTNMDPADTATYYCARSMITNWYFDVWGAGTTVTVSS
Chain of SYNAGIS® (antibody) (VL): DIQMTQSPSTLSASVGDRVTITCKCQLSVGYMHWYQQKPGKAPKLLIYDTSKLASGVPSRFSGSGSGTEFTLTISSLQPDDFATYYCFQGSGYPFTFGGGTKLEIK

In the case of A4B4 (monoclonal antibody), in experiment [1], the pKd is 9.24, the off-rate (koff) came out at 0.000282 s⁻¹, the kon was found to be 496000 M⁻¹ s⁻¹ and the number in parentheses after KD (fold vs SYNAGIS) was 15 fold. In addition, in experiment [2], the negative-log Kd (pKd) was 8.70, the koff came to 0.000401 s⁻¹, the on-rate (kon) was 203000 M⁻¹ s⁻¹ and the number in parentheses after KD (fold vs SYNAGIS) was found to be 156 fold. This substance also gave a Hb in kJ mol^-1 (binding enthalpy) in experiment [3] of 22.2 kcal/mol. Further, in experiment [4], the Ka worked out at 2.69e+08 M⁻¹ and the pKd is 8.43.

Take SYNAGIS® (antibody): in experiment [1], the pKd was 8.06, the koff turned out to be 0.00265 s⁻¹, the kon worked out at 304000 M⁻¹ s⁻¹ and the number in parentheses after KD (fold vs SYNAGIS) is 1 fold. Moreover, in experiment [2], the negative-log Kd (pKd) is 6.51, the koff was 0.0242 s⁻¹, the kon was 78000 M⁻¹ s⁻¹ and the number in parentheses after KD (fold vs SYNAGIS) worked out at 1 fold. In experiment [3], the Hb in kJ mol^-1 (binding enthalpy) was 17 kcal/mol. This substance also displayed a Ka in experiment [4] of 1.23e+06 M⁻¹.

Source of the values: US20020177126A1.
